Patent publication US12144864B2, “Tubulysins and protein-tubulysin conjugates” (Regeneron Pharmaceuticals, Inc., priority 2018, dated 2024)

Legend:
[1] = biological target: T1, STEAP2 endogenously expressed on C4-2 prostate cancer cells (human, UniProt Q8NFT2 1-490); assay: cell-based or functional assay
T1 sequence (looked up): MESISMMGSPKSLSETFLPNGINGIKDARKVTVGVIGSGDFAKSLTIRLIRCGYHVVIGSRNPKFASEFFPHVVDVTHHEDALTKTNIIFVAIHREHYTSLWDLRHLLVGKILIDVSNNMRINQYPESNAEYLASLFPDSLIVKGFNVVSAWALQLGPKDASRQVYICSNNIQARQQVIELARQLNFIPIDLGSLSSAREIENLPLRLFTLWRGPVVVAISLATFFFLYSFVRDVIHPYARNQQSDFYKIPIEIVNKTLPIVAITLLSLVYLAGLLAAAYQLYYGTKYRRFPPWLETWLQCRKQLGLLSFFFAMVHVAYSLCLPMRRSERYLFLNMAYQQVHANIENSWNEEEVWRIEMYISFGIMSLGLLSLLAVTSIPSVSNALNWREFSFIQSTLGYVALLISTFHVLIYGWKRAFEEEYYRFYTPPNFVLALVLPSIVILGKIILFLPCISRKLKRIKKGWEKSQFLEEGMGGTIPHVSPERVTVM

C4-2 cells = assay: Cytotoxicity of anti-STEAP2 ADCs, payloads and reference compounds in C4-2 cells; format: cell-based, human; settings: at maximum concentration tested
Experimental: (§1) To test the ability of the disclosed tubulysin payloads to kill human cell lines, an in vitro cytotoxicity assay was performed. In vitro cytotoxicity of the disclosed payloads, as well as reference compounds, were evaluated using the CellTiter-Glo Assay Kit (Promega, Cat #G7573), in which the quantity of ATP present is used to determine the number of viable cells in culture. For the assay, C4-2, HEK293, or T47D cells were seeded at 4000 cells/well on Nunclon white 96-well plates in complete growth medium (DME high glucose:Ham's F12 at 4:1, 10% FBS, 100 units/ml Penicillin, 100 ug/ml streptomycin, 53 ug/ml glutatmine, 10 ug/ml insulin, 220 ng/ml biotin, 12.5 pg/ml T3, 12.5 ug/ml Adenine, 4 ug/ml transferrin for C42 cells; DME high glucose, 10% FBS, 100 units/ml Penicillin, 100 ug/ml streptomycin, 53 ug/ml glutatmine for HEK293; RPMI, 10% FBS, 100 units/ml Penicillin, 100 ug/ml streptomycin, 53 ug/ml glutatmine, 10 ug/ml insulin, 10 mM HEPEs, 200 nM Sodium Pyruvate for T47D cells) and grown overnight at 37° C. in 5% CO2. For cell viability curves, 1:3 serially diluted payloads were added to the cells at final concentrations ranging from 100 nM to […], including a no treatment control group, and were then incubated for 5 days. After the 5-day incubation, cells were incubated at room temperature with 100 μL of CellTiter-Glo reagents for 10 minutes. Relative luminescence units (RLU) were determined on a Victor plate reader (PerkinElmer). The IC50 values were determined from a four-parameter logistic equation over a 10-point response curve (GraphPad Prism). All IC50 values are expressed in molar (M) concentration. The percent cell killing (% kill) at the maximum concentration tested was estimated from the following formula (100−% viable cells). Averages±standard deviation (SD) are included where replicate experiments were performed.
To further test the ability of the disclosed tubulysin payloads, reference compounds, and antibody drug conjugates using these payloads, a cytotoxicity assay was performed using C4-2 cells as described in this example (see above). For these studies, anti-STEAP2 antibodies were conjugated to select tubulysins payloads, and the compounds were tested at concentrations starting at 100 nM with 3-fold serial dilution. All IC50 values are expressed in nM concentration and the percent cell killing at the maximum concentration tested was estimated from the following formula (100−% viable cells).

[2] = In vitro plasma stability of ADCs (DAR by LC-MS), mouse plasma; format: in vitro ADME; settings: 37° C., 50 μg/mL, DAR at 0 hr 3.8 (LP3 ADC), 4.0 (LP4 ADC), acetyl-hydrolyzed species counted as loss of drug
Experimental: (§2) To determine the plasma stability of representative ADCs containing the tubulysin payloads, ADCs were incubated in vitro with plasma from different species, and the DAR was evaluated after incubation at physiological temperature (37° C.) for 3 days.
(§3) For the assay, each ADC sample (anti-PRLR antibody-LP3 or anti-PRLR antibody-LP4) in PBS buffer was added to fresh pooled male mouse, cynomologus monkey, rat, or human plasma, separately, at a final concentration of 50 μg/mL in a 96-well plate, and subsequently incubated at 37° C. for 72 hours. After incubation, each sample (100 μL final volume) was individually frozen at −80° C. until analysis.
(§4) Affinity capture of the ADCs from the plasma samples was carried out on a KingFisher 96 magnetic particle processor (Thermo Electron). First, biotinylated extracellular domain of human PRLR expressed with a myc-myc hexahistidine tag (hPRLR ecto-MMH; SEQ ID NO: 17;100 μg/mL) was immobilized on streptavidin paramagnetic beads (In vitrogen, Cat #60210). Each plasma sample containing tubulysin ADCs (100 μL) was mixed at 600 rpm with 100 μL of the beads (the commercial beads come in volume) at room temperature for 2 hours in a 96-well plate. The beads were then washed three times with 600 μL of HBS-EP (GE healthcare, Cat #BR100188), once with 600 μL of H2O, and then once with 600 μL of 10% acetonitrile in water. […]

[3] = In vitro plasma stability of ADCs (DAR by LC-MS), cynomolgus monkey plasma; format: in vitro ADME; settings: 37° C., 50 μg/mL, DAR at 0 hr 3.8 (LP3 ADC), 4.0 (LP4 ADC), acetyl-hydrolyzed species counted as loss of drug
Experimental: as §2, §3, §4

[4] = In vitro plasma stability of ADCs (DAR by LC-MS), rat plasma; format: in vitro ADME; settings: 37° C., 50 μg/mL, DAR at 0 hr 3.8 (LP3 ADC), 4.0 (LP4 ADC), acetyl-hydrolyzed species counted as loss of drug
Experimental: as §2, §3, §4

[5] = In vitro plasma stability of ADCs (DAR by LC-MS), human plasma; format: in vitro ADME; settings: 37° C., 50 μg/mL, DAR at 0 hr 3.8 (LP3 ADC), 4.0 (LP4 ADC), acetyl-hydrolyzed species counted as loss of drug
Experimental: as §2, §3, §4

HCT15/PRLR cells = assay: Cytotoxicity of anti-PRLR tubulysin ADCs and payloads in HCT15/PRLR cells with or without Verapamil; format: cell-based, human; settings: at maximum concentration tested; for % kill on HCT15/PRLR w/ Verapamil: with Verapamil; for % kill on HCT15/PRLR w/o Verapamil: without Verapamil
Experimental: as §1
Bioassays were developed to assess the efficacy of an anti-PRLR antibody conjugated with the disclosed tubulysin payloads and reference payloads. It was developed to assess the activity of tubulysin payloads after internalization of an anti-PRLR-tubulysin ADC into cells, release of the payload, and subsequent cytotoxicity. For this assay, a HCT15 line was engineered to express human full length PRLR (accession #NP_000940.1). The resulting stable cell line is referred to herein as HCT15/PRLR. In vitro cytotoxicity of the disclosed payloads, reference compounds, and tested ADCs were evaluated similarly as described in this example using HCT15/PRLR cells with or without […] of Verapamil diluted in normal culture medium. The compounds were tested at concentrations starting at 100 nM with 3-fold serial dilution. All IC50 values are expressed in nM concentration and the percent cell killing (% kill) at the maximum concentration tested was estimated from the following formula (100−% viable cells).

B1: anti-STEAP2-LP5 (antibody, V domains shown)
VH: QVQLVESGGGVVQPGRSLRLSCVASGFTISSYGMNWVRQAPGKGLEWVAVISYDGGNKYSVDSVKGRFTISRDNSKNTLYLQMNSLRAEDSAVYYCARGRYFDLWGRGTLVTVSS
VL: DIQMTQSPSTLSASVGDRVTITCRASQSISSWLAWYQQKPGRAPNLLISKASSLKSGVPSRFSGSGSGTEFTLTVSSLQPDDFATYYCQQYYSYSYTFGQGTKLEIK
modifications: linker-payload LP5 (DIBAC-suc-PEG4-VA, payload IVd) conjugated; site and DAR of this conjugate not printed (the site-specific procedure uses N297Q, EU numbering, with azido-PEG3-amine on glutamines)
- IC50, cytotoxicity in the C4-2 cell based assay (CellTiter-Glo) [1]: 0.28 nM
- % kill (C4-2 cells): 96%

B2: Anti-PRLR-LP3 (conjugate)
VH: QVQLVESGGGVVQPGRSLRLSCGASGFTFRNYGMQWVRQGPGKGLEWVTLISFDGNDKYYADSVKGRFTISRDNSKNTLFLQMNSLRTEDTAVYYCARGGDFDYWGQGTLVTVSS
VL: DIQMTQSPSSLSASVGDRVTITCRASQDIRKDLGWYQQKPGKAPKRLIYAASSLHSGVPSRFSGSGSGTEFTLTISSLQPEDFATYYCLQHNSYPMYTFGQGTKLEIK
modifications: non-natural residues
- DAR after 72 hours of incubation [2]: 2.7
- DAR after 72 hours of incubation [3]: 2.7
- DAR after 72 hours of incubation [4]: 2.7
- DAR after 72 hours of incubation [5]: 3.0
- % kill on HCT15/PRLR w/ Verapamil (HCT15/PRLR cells): 91%
- % kill on HCT15/PRLR w/o Verapamil (HCT15/PRLR cells): 90%

B3: Anti-PRLR-LP4 (conjugate)
VH: B2 VH
VL: B2 VL
modifications: non-natural residues
- DAR after 72 hours of incubation [2]: 2.7
- DAR after 72 hours of incubation [3]: 2.7
- DAR after 72 hours of incubation [4]: 2.6
- DAR after 72 hours of incubation [5]: 3.0
- % kill on HCT15/PRLR w/ Verapamil (HCT15/PRLR cells): 91%
- % kill on HCT15/PRLR w/o Verapamil (HCT15/PRLR cells): 65%
